The target in assay [1] is HIV-1 Env of pseudovirus 235-47 (clade CRF02_AG) (HIV-1). As to the kind of experiment: cell-based or functional assay.
The target of assay [2] is HIV-1 Env of pseudovirus BJOX015000.11.5 (clade CRF01_AE (T/F)) (HIV-1). The assay is described as follows: cell-based or functional assay.

In assay [1], 10-1074 (antibody) displayed an IC50, titer in TZM.bl cells of 0.05 µg/mL and an IC80, titer in TZM.bl cells of 0.163 µg/mL. In assay [2], this substance came in with an IC50, titer in TZM.bl cells of over 50 µg/mL and an IC80, titer in TZM.bl cells of over 50 µg/mL.

Turning to 10E8 (antibody), the IC50, titer in TZM.bl cells in assay [1] worked out at 0.384 µg/mL; in assay [2] it was 0.051 µg/mL. Besides, the IC80, titer in TZM.bl cells worked out at 2.07 µg/mL in assay [1] and 1.91 µg/mL in assay [2].

In the case of PG9 (antibody), the values for the IC50, titer in TZM.bl cells in assay [1] and in assay [2] were 0.233 µg/mL and 0.322 µg/mL, respectively. In addition, the figures for the IC80, titer in TZM.bl cells in assay [1] and in assay [2] were 1.2 µg/mL and 1.49 µg/mL, respectively.

In assay [1], PG16 (antibody) yielded an IC50, titer in TZM.bl cells of 0.092 µg/mL and an IC80, titer in TZM.bl cells of 4.51 µg/mL. In assay [2], this substance yielded an IC50, titer in TZM.bl cells of 3.13 µg/mL and an IC80, titer in TZM.bl cells of over 50 µg/mL.

These data come from US20230002480A1.
